Data published in US20210147561A1 (published 2021).

Experiments:
[1] = biological target: T1, CD123 (interleukin-3 receptor alpha, IL3RA) (human, UniProt P26951 19-378)
T1 chain: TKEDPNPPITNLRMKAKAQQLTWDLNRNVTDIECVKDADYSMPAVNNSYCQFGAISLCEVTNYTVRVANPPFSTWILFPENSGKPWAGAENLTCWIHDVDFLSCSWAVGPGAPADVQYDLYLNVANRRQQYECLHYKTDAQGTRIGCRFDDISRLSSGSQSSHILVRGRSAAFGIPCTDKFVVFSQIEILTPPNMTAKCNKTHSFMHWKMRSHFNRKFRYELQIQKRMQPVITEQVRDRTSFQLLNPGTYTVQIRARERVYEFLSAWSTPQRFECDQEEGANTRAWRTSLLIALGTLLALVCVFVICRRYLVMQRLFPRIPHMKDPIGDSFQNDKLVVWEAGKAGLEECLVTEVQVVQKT

[2] = biological target: T1, CD123 (interleukin-3 receptor alpha, …)

Ka [1]: 4.81e+08 M⁻¹ | Kd [2]: 2.08 nM
B1: 7G3_H1L1_Fab_His (XENP 13761) (antibody, V domains shown)
VH: QVQLVQSGAEVKKPGASVKVSCKASGYTFTDYYMKWVRQAPGQSLEWMGDIIPSNGATFYNQKFQGRVTMTVDRSTSTAYMELSSLRSEDTAVYYCTRSHLLRASWFAYWGQGTLVTVSS
VL: DFVMTQSPDSLAVSLGERATINCKSSQSLLNSGNQKNYLTWYQQKPGQPPKLLIYWASTRESGVPDRFTGSGSGTDFTLTISSLQAEDVAVYYCQNDYSYPYTFGGGTKLEIKR
